Test results reported in patent publication US20230031280A1, “GLP-2 FUSION POLYPEPTIDES AND USES FOR TREATING AND PREVENTING GASTROINTESTINAL CONDITIONS” (SHIRE-NPS PHARMACEUTICALS, INC., priority 2017, published 2023).

Legend:
[1] = Projection of intravenous and subcutaneous PK parameters for humans; set-up: species or system human
Experimental: While a dose of 30 μg/kg once weekly (QW) is projected from the cynomolgus monkey PK data, the dose should be ten times higher (300 μg/kg) to adjust for the difference in in vivo potency.

[2] = Rat pharmacokinetics, subcutaneous dosing; type: in vivo, Sprague-Dawley rats; details: single dose 1 mg/ml
Experimental: (§1) In the rat, four pharmacokinetic parameters were measured for Gattex® (a GLP-2 peptide having the A2G mutation): CL, Vc, Vt and Q. The same pharmacokinetic parameters were also measured for GLP-2 peptibodies A, B, E, J, K, L, M, O and P. The data is shown in Table 5. Male Sprague-Dawley rats (3 animals per group) were injected subcutaneously into the intra-scapular region of the animal. A singles dose of test article was injected at a dose level of 1 mg/ml. The test articles were formulated in PBS pH 7.4 at a concentration of Blood samples were taken 0.083, 0.167, 0.33, 0.5, 1, 2, 6, 24, 48, 72, 120, 168, 240, and 336 hours post dose. Blood samples were collected into heparinized tubes and centrifuged for 5 minutes at 2000 xg within 10 minutes of collection. 100 μL of plasma were transferred to a 1.51 ml Eppendorf tube containing 2 μL of 50 mM PMSF. After mixing the plasma samples were frozen at −80° C. until analysis. Meso Scale Discovery (MSD) ELISA was undertaken to assay for the concentration of the GLP-2 peptibodies.
A sandwich immunoassay was developed using either an anti-Human IgG1 Fc antibody or an anti-human albumin antibody for capture of the peptibody and a sulfotag labeled anti GLP-2 antibody for detection.

[3] = NanoDSF melting temperature / thermal stability; type: physicochemical; details: for NanoDSF melting temperature 1: first transition
Experimental: Each of the GLP-2 peptibodies was tested by determining melting temperature with nanodifferential scanning fluorimetry (NanoDSF). NanoDSF is a measurement of protein stability over a range of temperatures, with a temperature ramp employed. The stability of tryptophan is measured by fluorescence, as reflected in a ratio of fluorescence at 350 nm to fluorescence at 330 nm. From the assay, one or more melting temperatures are determined. Because a protein in a certain state is understood to have a melting temperature, the number of melting temperatures observed reflects the number of different states.
(§2) Stability analysis was then performed using SEC-MALS and NanoDSF. For SEC-MALS, a Sepax Zenix C-150 column was used. The mobile phase buffer was 1× PBS with a final concentration of 400 mM NaCl. The flow rate was 0.8 mL per minute. 20 micrograms of total protein was injected. For NanoDSF, 10 microliters of sample was used, without normalization of the samples.
as §2

[4] = Cynomolgus monkey pharmacokinetic study; type: in vivo, cynomolgus monkeys; details: 0.75 mg/kg
Experimental: Pharmacokinetics studies of teduglutide, GLP-2 Peptibody B and GLP-2 Peptibody K were formed in cynomolgus monkeys with citrulline assayed as a biomarker of GLP-2 concentration. In the study, 12.5 nmol/kg teduglutide was administered subcutaneously to a group of 6 male cynomolgus monkeys at day 1. Then for one set of 2 monkeys, 25 nmol/kg GLP-2 Peptibody B was administered intravenously at day 7, day 21, day 28, day 35, and day 42. For another set of 3 monkeys, 25 nmol/kg GLP-2 Peptibody B was administered subcutaneously at day 7, day 21, day 28, day 35, and day 42. For another set of monkeys, 5 nmol/kg GLP-2 Peptibody K was administered intravenously (2 monkeys) and subcutaneously (3 monkeys) at day 7, day 21, day 28, day 35, and day 42. For another set of monkeys, 25 nmol/kg GLP-2 Peptibody K was administered subcutaneously (3 monkeys) and intravenously (2 monkeys) at day 7, day 21, day 28, day 35, and day 42.

[5] = SEC-MALS (Sepax Zenix C-150) peak distribution; type: physicochemical
Experimental: A SEC-MALS assay was performed to determine the primary state (main peak) and its molecular weight. […] The GLP-2 peptibody O (albumin fusion) eluted at a molecular weight indicative of a monomer.
as §2, §2

[6] = target: T1, hFcRn (extracellular domain of the FcRN) (Homo sapiens, UniProt P55899); test: FcRn binding by surface plasmon resonance (Biacore)
T1 construct: made in house
Source text: Binding to the Fc neonatal receptor (FcRN) allows for recycling of the molecules and leads to an extended in vivo serum half-life of the Fc fusion proteins. Recycling occurs as the molecules are passively taken into the cells and the pH of the endosomes is lower. That leads to binding of the Fc portion of the molecule to the FcRN. When the FcRN recycles back to the surface of the cell, the pH is then neutral and the protein is released back into the serum.
Binding to the extracellular domain of the FcRN was measured by surface plasmon resonance (SPR) using a Biacore system. Direct immobilization with FcRn was achieved via amine coupling of a CM5 chip with FcRn under the following conditions: • i) hFcRn (expressed and purified in house) is diluted in Acetate buffer pH 5.0 to 5 μg/mL. • ii) Immobilize 5 μg/mL of FcRn with target of 500 RU on CM5 chip in PBS pH 7.0 • iii) Final response 454 RU • iv) Running buffer: PBS-P+, pHed to 5.5
The kinetic binding study was done using the following protocol. Samples were diluted in PBS-P+ to 50, 25, 12.5, 6.25, 3.125, 1.56, 0.78, 0.39, 0 nM. The parameters were set as follows: • i) Association and Dissociation 300 s at Flow rate 30 μL/min • ii) Regeneration with 25 mM Tris, 150 mM NaCl pH 8.0 40 s at 60 μL/min
A measurement of the binding of the GLP-2 peptibodies to the Fc neonatal receptor (FcRN) was undertaken at pH 5.5 and pH 7.4.

[7] = Rat pharmacokinetics, intravenous dosing; type: in vivo, Sprague-Dawley rats; details: single dose 1 mg/ml
Experimental: as §1, with “4.” for “5.”, “intravenously either via a jugular vein or tail vein catheter.” for “subcutaneously into the intra-scapular region of the animal.”, “1.5” for “1.51”, “mixing,” for “mixing”, “analysis.” for “analysis. Meso Scale Discovery (MSD) ELISA was undertaken to assay for the concentration of the GLP-2 peptibodies.”

T1 sequence (P55899 24-297 limits assumed): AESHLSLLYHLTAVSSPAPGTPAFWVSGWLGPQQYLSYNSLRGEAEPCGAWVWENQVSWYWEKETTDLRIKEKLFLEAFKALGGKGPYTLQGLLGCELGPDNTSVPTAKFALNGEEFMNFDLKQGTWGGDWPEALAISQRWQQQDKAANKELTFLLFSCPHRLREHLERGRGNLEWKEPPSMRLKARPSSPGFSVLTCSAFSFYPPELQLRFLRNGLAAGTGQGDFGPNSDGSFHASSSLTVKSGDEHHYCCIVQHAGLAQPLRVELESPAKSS
T1 sequence (P61769 21-119 partner): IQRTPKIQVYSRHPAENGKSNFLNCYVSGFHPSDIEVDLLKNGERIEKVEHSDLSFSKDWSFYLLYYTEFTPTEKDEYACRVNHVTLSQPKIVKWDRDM

For “GLP-2 peptibody B: GLP-2[A2G]-GGGGG linker-IgG1 Fc (LALA) with C-terminal lysine; SEQ ID NO: 4”, the Vc [1] was 0.0494 L/kg, the Vt [1] was 0.0425 L/kg and the ka [1] was 2.43 day⁻¹. The “CL (value in parentheses)” value ([1]; exponent on CL 0.85, monkey 3.5 kg, human 70 kg) was 1.04 mL/h/kg, the CL ([1]; first value of cell) was 1.63 mL/h/kg and the F ([1]; first value of cell) was 98%. The Q ([1]; first value of cell) was 1 mL/h/kg, the “F (value in parentheses)” value ([1]; value in parentheses) was 60% and the “Q (value in parentheses)” value ([1]; value in parentheses) was 0.642 mL/h/kg. The CL [2] was 1.79 mL/h/kg, the Q [2] was 2.17 mL/h/kg and the Vc [2] was 0.073 L/kg. For the same substance, the Vt [2] was 0.068 L/kg, the ka [2] was “B (0.45 ka/day,” and the “NanoDSF melting temperature 1” value [3] was 1 = 67.1 °C. The “NanoDSF melting temperature 2” value ([3]; second transition) was 2 = 79.9 °C, the CL ([4]; MDPK, intravenous) was 0.417 mL/h/kg and the Q ([4]; MDPK, intravenous) was 1.2 mL/h/kg. The Vc ([4]; MDPK, intravenous) was 0.0187 L/kg, the Vt ([4]; MDPK, intravenous) was 0.0329 L/kg and the CL/F ([4]; MDPK, subcutaneous) was 0.737 mL/h/kg. For the same substance, the Vc ([4]; MDPK, subcutaneous) was 0.094 L/kg, the “association constant (ka)” value ([4]; MDPK, subcutaneous) was 1.59 day⁻¹ and the CL ([4]; SDPK, intravenous) was 0.396 mL/h/kg. It also gave a Q ([4]; SDPK, intravenous) of 1.11 mL/h/kg, a Vc ([4]; SDPK, intravenous) of 0.0171 L/kg and a Vt ([4]; SDPK, intravenous) of 0.0276 L/kg. For the same substance, the CL/F ([4]; SDPK, subcutaneous) was 0.737 mL/h/kg, the Vc ([4]; SDPK, subcutaneous) was 0.0924 L/kg and the “association constant (ka)” value ([4]; SDPK, subcutaneous) was 1.52 day⁻¹. The “SEC-MALS Zenix C-150 main peak” value [5] was 85% main peak, 158,800 g/mol, the Kd ([6]; pH 5.5) was 1.7 nM and the “FcRN KD at pH 7.4” value [6] was “No binding in range tested”. For the same substance, the CL [7] was 2 mL/h/kg, the Q [7] was 2.42 mL/h/kg and the Vc [7] was 0.031 L/kg. For the same substance, the Vt [7] was 0.076 L/kg.

For “GLP-2 peptibody O: fusion protein between GLP-2, a linker, and amino acids 25-609 of human serum albumin; SEQ ID NO: 28”, the CL [2] was 30.9 mL/h/kg, the Vc [2] was 0.565 L/kg and the ka [2] was “O (1.26 ka/day,”. The “NanoDSF melting temperature 1” value [3] was 1 = 57.6 °C, the “SEC-MALS Zenix C-150 main peak” value [5] was 89.5% main peak, 76,500 g/mol and the “FcRN KD at pH 5.5” value ([6]; pH 5.5) was “substantially higher KD”. The Kd ([6]; pH 5.5) was 1370 nM, the “FcRN KD at pH 7.4” value [6] was “No binding in range tested” and the CL [7] was 5.42 mL/h/kg. The Q [7] was 57.5 mL/h/kg, the Vc [7] was 0.0432 L/kg and the Vt [7] was 0.054 L/kg.
